This is an account of results in the supplement of paper PMC5998384.

Data set [1] deals with HeLa Kyoto. As to the kind of experiment: solubility in G1/S (NP-40 vs SDS abundance) (log2 ratio); higher = more soluble. Conditions: cell cycle stage: G1/S.
Data set [2] has as its system HeLa Kyoto. The data set is described as follows: melting temperature (median over replicates), in situ; higher = more thermally stable.
Data set [3] has as its system HeLa Kyoto. The data set is described as follows: thermal stability score vs G1/S (z-score of summed log2 fold changes over temperatures); higher = more thermally stable than in G1/S.
Data set [4] concerns HeLa Kyoto. The data set is described as follows: solubility change mitosis vs G1/S (difference of NP-40 vs SDS log2 ratios) (log2 ratio difference); higher = more soluble in mitosis.
The mark [5] stands for this setting: cell cycle stage: early G1 (4.5 h after nocodazole release).
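Throughout, for melting temperature (median over replicates), in situ: HeLa Kyoto cells synchronized by double thymidine or nocodazole block, proteins quantified by TMT10plex mass spectrometry, three independent biological replicates.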
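Throughout, for solubility change mitosis vs G1/S (difference of NP-40 vs SDS log2 ratios): synchronized HeLa Kyoto cells (double thymidine block for G1/S, nocodazole release for mitosis), protein amounts in NP-40 versus SDS lysates quantified by mass spectrometry, three biological replicates.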
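Throughout, for solubility in G1/S (NP-40 vs SDS abundance): HeLa Kyoto cells arrested at G1/S by double thymidine block, proteins quantified by TMT10plex mass spectrometry in mild NP-40 versus SDS extracts, three biological replicates.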
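Throughout, for thermal stability score vs G1/S (z-score of summed log2 fold changes over temperatures): synchronized HeLa Kyoto cells, proteins quantified by TMT10plex mass spectrometry, three biological replicates, mitosis taken 0.5 h after nocodazole release, G1/S directly after double thymidine block.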

With “MAEMGSKGVTAGKIASNVQKKLTRAQEKVLQKLGKADETKDEQFEQCVQNFNKQLTEGTRLQKDLRTYLASVKAMHEASKKLNECLQEVYEPDWPGRDEANKIAENNDLLWMDYHQKLVDQALLTMDTYLGQFPDIKSRIAKRGRKLVDYDSARHHYESLQTAKKKDEAKIAKPVSLLEKAAPQWCQGKLQAHLVAQTNLLRNQAEEELIKAQKVFEEMNVDLQEELPSLWNSRVGFYVNTFQSIAGLEENFHKEMSKLNQNLNDVLVGLEKQHGSNTFTVKAQPSDNAPAKGNKSPSPPDGSPAATPEIRVNHEPEPAGGATPGATLPKSPSQLRKGPPVPPPPKHTPSKEVKQEQILSLFEDTFVPEISVTTPSQFEAPGPFSEQASLLDLDFDPLPPVTSPVKAPTPSGQSIPWDLWEPTESPAGSLPSGEPSAAEGTFAVSWPSQTAEPGPAQPAEASEVAGGTQPAAGAQEPGETAASEAASSSLPAVVVETFPATVNGTVEGGSGAGRLDLPPGFMFKVQAQHDYTATDTDELQLKAGDVVLVIPFQNPEEQDEGWLMGVKESDWNQHKELEKCRGVFPENFTERVP [BIN1]”, the “solubility in G1/S (log2)” value in the data set on HeLa Kyoto [1] worked out at 0.803. The melting temperature is 51.9 °C with HeLa Kyoto [2] (cell cycle stage: G1/S) and 51.6 °C in the data set on HeLa Kyoto [2] (cell cycle stage: mitosis). The thermal stability score was -1.69 in the data set with HeLa Kyoto [3] (setting [5]) and 0.531 in the data set on HeLa Kyoto [3] (cell cycle stage: mitosis). Moreover, the “solubility change mitosis (log2)” value with HeLa Kyoto [4] was -0.0586.
“MAENSVLTSTTGRTSLADSSIFDSKVTEISKENLLIGSTSYVEEEMPQIETRVILVQEAGKQEELIKALKTIKIMEVPVIKIKESCPGKSDEKLIKSVINMDIKVGFVKMESVEEFEGLDSPEFENVFVVTDFQDSVFNDLYKADCRVIGPPVVLNCSQKGEPLPFSCRPLYCTSMMNLVLCFTGFRKKEELVRLVTLVHHMGGVIRKDFNSKVTHLVANCTQGEKFRVAVSLGTPIMKPEWIYKAWERRNEQDFYAAVDDFRNEFKVPPFQDCILSFLGFSDEEKTNMEEMTEMQGGKYLPLGDERCTHLVVEENIVKDLPFEPSKKLYVVKQEWFWGSIQMDARAGETMYLYEKANTPELKKSVSMLSLNTPNSNRKRRRLKETLAQLSRETDVSPFPPRKRPSAEHSLSIGSLLDISNTPESSINYGDTPKSCTKSSKSSTPVPSKQSARWQVAKELYQTESNYVNILATIIQLFQVPLEEEGQRGGPILAPEEIKTIFGSIPDIFDVHTKIKDDLEDLIVNWDESKSIGDIFLKYSKDLVKTYPPFVNFFEMSKETIIKCEKQKPRFHAFLKINQAKPECGRQSLVELLIRPVQRLPSVALLLNDLKKHTADENPDKSTLEKAIGSLKEVMTHINEDKRKTEAQKQIFDVVYEVDGCPANLLSSHRSLVQRVETISLGEHPCDRGEQVTLFLFNDCLEIARKRHKVIGTFRSPHGQTRPPASLKHIHLMPLSQIKKVLDIRETEDCHNAFALLVRPPTEQANVLLSFQMTSDELPKENWLKMLCRHVANTICKADAENLIYTADPESFEVNTKDMDSTLSRASRAIKKTSKKVTRAFSFSKTPKRALRRALMTSHGSVEGRSPSSNDKHVMSRLSSTSSLAGIPSPSLVSLPSFFERRSHTLSRSTTHLI [ECT2]”: the “solubility in G1/S (log2)” value in the data set on HeLa Kyoto [1] was -0.347. In addition, the results for the melting temperature in the data set on HeLa Kyoto [2] (cell cycle stage: G1/S) and in the data set on HeLa Kyoto [2] (cell cycle stage: mitosis) were 46.9 °C and 49.4 °C, respectively. Moreover, the thermal stability score with HeLa Kyoto [3] (setting [5]) came out at 0.718; in the data set with HeLa Kyoto [3] (cell cycle stage: mitosis), 0.962. In addition, the “solubility change mitosis (log2)” value in the data set on HeLa Kyoto [4] came out at 0.255.
As to “MAEPDPSHPLETQAGKVQEAQDSDSDSEGGAAGGEADMDFLRNLFSQTLSLGSQKERLLDELTLEGVARYMQSERCRRVICLVGAGISTSAGIPDFRSPSTGLYDNLEKYHLPYPEAIFEISYFKKHPEPFFALAKELYPGQFKPTICHYFMRLLKDKGLLLRCYTQNIDTLERIAGLEQEDLVEAHGTFYTSHCVSASCRHEYPLSWMKEKIFSEVTPKCEDCQSLVKPDIVFFGESLPARFFSCMQSDFLKVDLLLVMGTSLQVQPFASLISKAPLSTPRLLINKEKAGQSDPFLGMIMGLGGGMDFDSKKAYRDVAWLGECDQGCLALAELLGWKKELEDLVRREHASIDAQSGAGVPNPSTSASPKKSPPPAKDEARTTEREKPQ [SIRT2]”, the “solubility in G1/S (log2)” value in the data set on HeLa Kyoto [1] stood at 0.229. The melting temperature in the data set with HeLa Kyoto [2] (cell cycle stage: G1/S) stood at 51.4 °C; with HeLa Kyoto [2] (cell cycle stage: mitosis), 52.5 °C. Moreover, the thermal stability score in the data set on HeLa Kyoto [3] (setting [5]) is 0.148; with HeLa Kyoto [3] (cell cycle stage: mitosis) it was -0.178. The “solubility change mitosis (log2)” value in the data set on HeLa Kyoto [4] was -0.026.
In the case of “MAEPSAATQSHSISSSSFGAEPSAPGGGGSPGACPALGTKSCSSSCADSFVSSSSSQPVSLFSTSQEGLSSLCSDEPSSEIMTSSFLSSSEIHNTGLTILHGEKSHVLGSQPILAKEGKDHLDLLDMKKMEKPQGTSNNVSDSSVSLAAGVHCDRPSIPASFPEHPAFLSKKIGQVEEQIDKETKNPNGVSSREAKTALDADDRFTLLTAQKPPTEYSKVEGIYTYSLSPSKVSGDDVIEKDSPESPFEVIIDKAAFDKEFKDSYKESTDDFGSWSVHTDKESSEDISETNDKLFPLRNKEAGRYPMSALLSRQFSHTNAALEEVSRCVNDMHNFTNEILTWDLVPQVKQQTDKSSDCITKTTGLDMSEYNSEIPVVNLKTSTHQKTPVCSIDGSTPITKSTGDWAEASLQQENAITGKPVPDSLNSTKEFSIKGVQGNMQKQDDTLAELPGSPPEKCDSLGSGVATVKVVLPDDHLKDEMDWQSSALGEITEADSSGESDDTVIEDITADTSFENNKIQAEKPVSIPSAVVKTGEREIKEIPSCEREEKTSKNFEELVSDSELHQDQPDILGRSPASEAACSKVPDTNVSLEDVSEVAPEKPITTENPKLPSTVSPNVFNETEFSLNVTTSAYLESLHGKNVKHIDDSSPEDLIAAFTETRDKGIVDSERNAFKAISEKMTDFKTTPPVEVLHENESGGSEIKDIGSKYSEQSKETNGSEPLGVFPTQGTPVASLDLEQEQLTIKALKELGERQVEKSTSAQRDAELPSEEVLKQTFTFAPESWPQRSYDILERNVKNGSDLGISQKPITIRETTRVDAVSSLSKTELVKKHVLARLLTDFSVHDLIFWRDVKKTGFVFGTTLIMLLSLAAFSVISVVSYLILALLSVTISFRIYKSVIQAVQKSEEGHPFKAYLDVDITLSSEAFHNYMNAAMVHINRALKLIIRLFLVEDLVDSLKLAVFMWLMTYVGAVFNGITLLILAELLIFSVPIVYEKYKTQIDHYVGIARDQTKSIVEKIQAKLPGIAKKKAE [RTN3]”, the “solubility in G1/S (log2)” value in the data set with HeLa Kyoto [1] stood at 0.125. The melting temperature with HeLa Kyoto [2] (cell cycle stage: G1/S) is 55.7 °C; in the data set on HeLa Kyoto [2] (cell cycle stage: mitosis), 57.6 °C. Besides, the thermal stability score was 0.293 with HeLa Kyoto [3] (setting [5]) and -1.15 in the data set with HeLa Kyoto [3] (cell cycle stage: mitosis). For the same sequence, the “solubility change mitosis (log2)” value in the data set on HeLa Kyoto [4] was -0.108.
On to “MAEPVSPLKHFVLAKKAITAIFDQLLEFVTEGSHFVEATYKNPELDRIATEDDLVEMQGYKDKLSIIGEVLSRRHMKVAFFGRTSSGKSSVINAMLWDKVLPSGIGHITNCFLSVEGTDGDKAYLMTEGSDEKKSVKTVNQLAHALHMDKDLKAGCLVRVFWPKAKCALLRDDLVLVDSPGTDVTTELDSWIDKFCLDADVFVLVANSESTLMNTEKHFFHKVNERLSKPNIFILNNRWDASASEPEYMEDVRRQHMERCLHFLVEELKVVNALEAQNRIFFVSAKEVLSARKQKAQGMPESGVALAEGFHARLQEFQNFEQIFEECISQSAVKTKFEQHTIRAKQILATVKNIMDSVNLAAEDKRHYSVEEREDQIDRLDFIRNQMNLLTLDVKKKIKEVTEEVANKVSCAMTDEICRLSVLVDEFCSEFHPNPDVLKIYKSELNKHIEDGMGRNLADRCTDEVNALVLQTQQEIIENLKPLLPAGIQDKLHTLIPCKKFDLSYNLNYHKLCSDFQEDIVFRFSLGWSSLVHRFLGPRNAQRVLLGLSEPIFQLPRSLASTPTAPTTPATPDNASQEELMITLVTGLASVTSRTSMGIIIVGGVIWKTIGWKLLSVSLTMYGALYLYERLSWTTHAKERAFKQQFVNYATEKLRMIVSSTSANCSHQVKQQIATTFARLCQQVDITQKQLEEEIARLPKEIDQLEKIQNNSKLLRNKAVQLENELENFTKQFLPSSNEES [MFN1]”, for which the “solubility in G1/S (log2)” value in the data set with HeLa Kyoto [1] is -0.168. Further, the melting temperature in the data set with HeLa Kyoto [2] (cell cycle stage: G1/S) was 52 °C; with HeLa Kyoto [2] (cell cycle stage: mitosis), 51.3 °C. Moreover, the thermal stability score in the data set with HeLa Kyoto [3] (setting [5]) is -0.212; with HeLa Kyoto [3] (cell cycle stage: mitosis), -0.832. Moreover, the “solubility change mitosis (log2)” value in the data set on HeLa Kyoto [4] is -0.0897.
